Experimental findings from patent publication US6716624B2, “GSK3 polypeptides” (Chiron Corporation, priority 2000, dated 2004) are described below.

In data set [1] the test system is prephosphorylated SGSG-linked CREB peptide. Kind of data set: Kinase specific activity of truncated GSK3β polypeptides (P81 filter assay). The note with it: 5.9 μM CREB peptide, 25 μM ATP, 20 min at room temperature. The format is biochemical. On the procedure: A reaction mixture was prepared containing 5.9 μM prephosphorylated SGSG-linked CREB peptide (Wang et al., Anal. Biochem., 220:397-402 (1994))μ in reaction buffer (5 mM Tris, pH 7.5, 5 mM DTT; 1 mM MgCl2, 0.01% BSA) containing the desired amount of truncated GSK3 polypeptide. ATP was added (specific activity 5.3 Ci/mmol) to 25 μM final concentration and the mixture was incubated for 20 min. at room temperature. The reaction was stopped by transferring 30 μl onto a P81 filter disc (Whatman). The disc was washed four times in 150 ml of 75 mM H3PO4 for 5 minute each. The filter was air dried and counted under 5 ml scintillation fluid. The specific activity was counted by determining the ratio of counts (in cpm) by the mass of GSK3 in the reaction (in μg).

Data set [2] is described as follows: Concentration of the protein stock (solubility of the construct). It is filed as physicochemical. The note with it: concentrated protein stock. Here is the method: The GSK3 constructs of the invention are capable of crystallization. […] Potential to crystallize is measured using a variety of assays including specific activity, aggregation, microheterogeneity. (See, for example, Table 1). These parameters are indicative of the purity of the preparation and of the solubility of the construct. The specific activity is also a preferred assay for detecting binding of an inhibitor to the correct binding site of the GSK3 construct. Another suitable method is fluorescence polarization. Briefly, a putative inhibitor, with an attached fluorophore, tumbles freely in solution. Thus when the fluorophore is excited by polarized light, the emitted light which is produced after a finite delay now has random polarity and the emitted light is no longer polarized. In the presence of a GSK3 construct with an intact inhibitor binding site, the tumbling rate is slowed sufficiently to ensure that, even though the light emission is delayed with respect to the excitation, the fluorophore has only moved very slightly. Thus, the excited light maintains polarization. A measurement of fluorescence polarization therefore indicates whether or not the GSK3 construct is suitable for identifying and optimizing an inhibitor. […] GSK3 constructs may not retain kinase activity, but their inhibitor binding can still be assessed using fluorescence polarization assays. […]

A short description of data set [3]: Aggregation of the purified construct on storage. The format is physicochemical. On the procedure: The GSK3 constructs of the invention are capable of crystallization. […] Potential to crystallize is measured using a variety of assays including specific activity, aggregation, microheterogeneity. (See, for example, Table 1). These parameters are indicative of the purity of the preparation and of the solubility of the construct. The specific activity is also a preferred assay for detecting binding of an inhibitor to the correct binding site of the GSK3 construct. Another suitable method is fluorescence polarization. Briefly, a putative inhibitor, with an attached fluorophore, tumbles freely in solution. Thus when the fluorophore is excited by polarized light, the emitted light which is produced after a finite delay now has random polarity and the emitted light is no longer polarized. […] A measurement of fluorescence polarization therefore indicates whether or not the GSK3 construct is suitable for identifying and optimizing an inhibitor. […] GSK3 constructs may not retain kinase activity, but their inhibitor binding can still be assessed using fluorescence polarization assays.
A truncated GSK3 polypeptide of the invention can be selected on the basis of one or more parameters. […] The potential of a polypeptide to form crystals can be evaluated on the basis of specific activity, purity, homogeneity, mass spectrometry, aggregation, and dynamic light scattering. […]

Turning to “Construct 557: Truncated human GSK3β, M1 to I384, with N-terminal Glu-tag and Gly linker (SEQ ID NO:2)”, in data set [1] (mean of N assays), the “Mean Specific Activity” value is given as 4.3 × 10^7 cpm/μg. Also, the specific activity in data set [1] (stated in the text) was 4.3×10^7 cpm/μg. The Concentration in data set [2] turned out to be 12700 µg/mL. The “Aggregation at 4 Degrees” value in data set [3] (4 degrees, > 2 weeks) is recorded as “none @ > 2”. For the same substance, the “Aggregation at RT” value in data set [3] (room temperature, time at which aggregation occurs) is on record as “overnight”.
